# Reference: PMC4457907
# Legend:
# [1] = target: T1, AtrA (Streptomyces coelicolor) (UniProt Q9KYF2); assay: EMSA; conditions: SlbR EMSA: 0.5x TBE pH 8.0, 0.0375% glycerol, 5 mM MgCl2, 1 mM DTT, 7.5 ug salmon sperm DNA in 20 ul, 30 min room temperature; AtrA EMSA: as Uguru et al. 2005 …
# T1 sequence: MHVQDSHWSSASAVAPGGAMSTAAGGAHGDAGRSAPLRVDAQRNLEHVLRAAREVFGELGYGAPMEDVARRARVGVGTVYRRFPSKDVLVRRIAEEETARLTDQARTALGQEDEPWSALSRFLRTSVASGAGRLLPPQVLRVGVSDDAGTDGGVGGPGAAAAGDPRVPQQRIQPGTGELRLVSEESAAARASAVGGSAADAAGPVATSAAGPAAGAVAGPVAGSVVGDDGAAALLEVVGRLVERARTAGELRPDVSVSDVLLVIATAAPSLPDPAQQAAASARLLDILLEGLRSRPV
# [2] = tested on: AtrA (Streptomyces coelicolor); assay: EMSA; conditions: SlbR EMSA: 0.5x TBE pH 8.0, 0.0375% glycerol, 5 mM MgCl2, 1 mM DTT, 7.5 ug salmon sperm DNA in 20 ul, 30 min room temperature, AtrA EMSA: as Uguru et al. 2005 …
substance,measurement,setting,value
AGCCGCGGGAACCAACGTCGCACGGCATGATCACGCAGGTCAGCGTGGGTGAGTGGGGGTTCGGAGGGGGGCACATCCGGGGCGGGCGCCATCCGTGCTCCGATCGGGGGGCGCTCCGTGCGGAACGTGCCCCTTCTGAATTGACCCCCGCTCAACTATGTTCTTTCCCACGGTGTGTAG (double strand) [SCO4119 promoter probe (179 bp)],binding signal,[1],binds more weakly
GTGAGAGCCGTGGGACACCGGTGGCGGTAACAGGAACCACCGGTTCCCTCGGGCGAGGGAAGTTTCCCGGACGGACCGTCGGTGAGCGGTGACCGACGGTTAGAGTCCGGAACTCCACGCGGGGGCGACTCCGCGAATGGCGCACCCCCCACCCGTGTTCGCCGCACGGGCCGCCACCTCGCGTTCCGGGAGTGATCCTTGGCCACGGCTGACACCGCATTCGCT (double strand) [ssgR promoter probe (224 bp)],Kd,[1],1.2 µM
actII-ORF4 site 2 probe (100 bp),Kd,[2]; cited from earlier work,0.15 µM
ssgR promoter probe (224 bp),Kd,"[2]; apparent Kd', 5 nM probe",1.2 µM
